The test has as its target protein A (UniProt P38507). The test can be described thus: SPR, BIACORE 3000, protein A immobilised on CM5 chip, 4.4 ug/ml BSA in flow at 20 ul/min; nonlinear regression with Rmax fixed at 880 RU. (Surface plasmon resonance follows binding to a sensor surface in real time, without labels.)

Drawing on patent US7723122, this text covers koff and kon for one substance.

What is called koff is the first-order rate constant of dissociation. The low end stands for a long-lived complex, the high end for a short-lived complex. For orientation: kon means a measure of how fast the partners come together. The substance “BSA (molecular weight: 66,200) (from UniProt P02769 25-607) (other; other documents disagree on this pair)” came in with a koff of 0.11 s⁻¹ and a kon of 880000 M⁻¹ s⁻¹.
